According to patent US8372580B2, “BRCA1 function-based cellular assays” (Morehouse School of Medicine, priority 2008, dated 2013):

B1: BRCA1 (aa 1-182): amino-terminal BRCA1 fragment, residues 1-182, with N-terminal FLAG sequence (protein, UniProt P38398 1-182, looked up, fragment)
chain: MDLSALRVEEVQNVINAMQKILECPICLELIKEPVSTKCDHIFCKFCMLKLLNQKKGPSQCPLCKNDITKRSLQESTRFSQLVEELLKIICAFQLDTGLEYANSYNFAKKENNSPEHLKDEVSIIQSMGYRNRAKRLLQSEPENPSLQETSLSVQLSNLGTVRTLRTKQRIQPQKTSVYIEL
modifications: N-terminal FLAG tag
B2: BRCA1 (aa 1-182) Mutant #1: BRCA1 1-182 fragment point mutant 1; apparently K109R (protein, UniProt P38398 1-182, looked up, fragment K109R)
chain: MDLSALRVEEVQNVINAMQKILECPICLELIKEPVSTKCDHIFCKFCMLKLLNQKKGPSQCPLCKNDITKRSLQESTRFSQLVEELLKIICAFQLDTGLEYANSYNFARKENNSPEHLKDEVSIIQSMGYRNRAKRLLQSEPENPSLQETSLSVQLSNLGTVRTLRTKQRIQPQKTSVYIEL
B3: BRCA1 (aa 1-182) Mut#4: BRCA1 1-182 fragment point mutant 4; apparently C61G (protein, UniProt P38398 1-182, looked up, fragment C61G)
chain: MDLSALRVEEVQNVINAMQKILECPICLELIKEPVSTKCDHIFCKFCMLKLLNQKKGPSQGPLCKNDITKRSLQESTRFSQLVEELLKIICAFQLDTGLEYANSYNFAKKENNSPEHLKDEVSIIQSMGYRNRAKRLLQSEPENPSLQETSLSVQLSNLGTVRTLRTKQRIQPQKTSVYIEL

System: ERα transcriptional activity in T47D breast cancer cells
Experiment: Cell based assay #2: ERE-luciferase reporter, E2-induced ERα activation by Ubc9 C93S
Conditions: Ubc9 C93S (SUMO-independent), E2 1 μM
Experimental: T47D cells (5×10^5) were plated in 6-well plates for 24 hours. The cells were washed twice in PBS followed by the addition of phenol red free DMEM containing 5% charcoal-stripped FBS for 48 hrs before transfection. The cells were transfected with 1 μg of each of the indicated plasmids (with a total of 2.5 μg DNA) using lipofectamine 2000 (Life Technology, USA). The cells were induced with 1 μM of E2 4 hours after transfections, harvested after an additional 40 hrs and assayed for luciferase activity following the manufacturer's instructions. Each set of experiments was performed in triplicate and repeated a least three times.

Row | Molecule | inhibition of E2-mediated ERα transcription activation by Ubc9/C93S
1 | B1 | inhibit E2-mediated ERα transcription activation by Ubc9/C93S
2 | B2 | unlike their respective Mut #1 and Mut#4, inhibit
3 | B3 | unlike their respective Mut #1 and Mut#4, inhibit
